In US20170275344A1, “POLYPEPTIDES AND USES THEREOF AS A DRUG FOR TREATMENT OF AUTOIMMUNE DISORDERS” (Compugen Ltd., priority 2014, published 2017):

What was measured:
[1] = test system: SJL mice; assay: PLP139-151/CFA R-EAE with Treg inactivation by anti-CD25; type: in vivo, mouse
Method: In two studies, EAE was induced in SJL mice via PLP139-151/CFA priming as described under Methods, below. The mice were divided into 4 and 8 groups in Study I and Study II, respectively groups (n=10/treatment group). In both studies, groups 1-4 the mice received two injections separated by one day, of either Control Ab or anti-CD25 (clone 7D4 at 500 μg/injection i.p. (BioXCell Cat# BE0013; West Lebanon, N.H.)) starting at the onset of disease remission (Day +19 and 21 in Study I or Day +20 and 22 in Study II), followed by treatment with either mIgG2a Control Ig or C1ORF32 ECD-Fc (100 ug/dose; 3×/wk; 2 wks) beginning on the day of the second treatment with anti CD25 (Day 21 in study I and day 22 in study II).
To study the importance of Treg function for maintenance of tolerance by C1ORF32 ECD-Fc a second set of mice was set in study II, groups 5-8, in which mice were treated with Control Ig or C1ORF32 ECD-Fc (SEQ ID NO:42) first in a similar regimen as groups 1-4 (beginning on Day +22), and then two weeks following the last C1ORF32 ECD-Fc (SEQ ID NO:42) treatment, on days 46 and 48, mice received either Control Ab or anti-CD25 (500 μg/injection) to inactivate the Treg cells. The mice were followed for the level of disease severity.
Study I Treatment Groups (n=10 Mice Per Group) 1. Control Ab (Day +19 and 21) plus Control Ig (100 ug/dose; 3×/wk; 2 wks; beginning on Day +21) 2. Anti-CD25 Ab (Day +19 and 21) plus Control Ig (100 ug/dose; 3×/wk; 2 wks; beginning on Day +21) 3. Control Ab (Day +19 and 21) plus C1ORF ECD-Fc (SEQ ID NO:42) (100 ug/dose; 3×/wk; 2 wks; beginning on Day +21) 4. Anti-CD25 Ab (Day +19 and 21) plus C1ORF ECD-Fc (SEQ ID NO:42) (100 ug/dose; 3×/wk; 2 wks; beginning on Day +21) Study II Treatment Groups (n=10 Mice Per Group) 1. Control Ab (Day +20 and 22) plus Control Ig (100 ug/dose; 3×/wk; 2 wks; beginning on Day +22) 2. Anti-CD25 Ab (Day +20 and 22) plus Control Ig (100 ug/dose; 3×/wk; 2 wks; beginning on Day +22) 3. Control Ab (Day +20 and 22) plus C1ORF32 ECD-Fc (SEQ ID NO:42) (100 ug/dose; 3×/wk; 2 wks; beginning on Day +22) 4. Anti-CD25 Ab (Day +20 and 22) plus C1ORF32 ECD-Fc (SEQ ID NO:42) (100 ug/dose; 3×/wk; 2 wks; beginning on Day +22) 5. Control Ig (100 ug/dose; 3×/wk; 2 wks; beginning on Day +22) plus Control Ab (Day +46 and 48) 6. […]
SJL mice were primed with 50 μg PLP139-151/CFA to induce R-EAE, and followed for disease through the acute phase of disease and into disease remission. […] Clinical results are expressed as the mean clinical score.
(§1) Mice were followed for disease and scored on a 0-5 scale per standard lab protocol as follows: 0, no abnormality; 1, limp tail; 2, limp tail and hind limb weakness; 3, hind limb paralysis; 4, hind limb paralysis and forelimb weakness; and 5, moribund.

[2] = test system: SJL/J mice; assay: PLP139-151/CFA R-EAE upon IL-10 or TGFb blockade, clinical score; type: in vivo, mouse
Method: SJL/J mice were purchased from Harlan and primed with PLP139-151/CFA per the standard protocol, as described in 21.1.2 Methods, above). At disease remission the mice were split into 6 different treatment groups (n=5) as follows:
Mice were treated with Control Ig (mouse IgG2a) or C1ORF32 ECD-Fc (SEQ ID NO:42) at 100 ug/dose, each via an i.p. injection. This was followed with a second i.p. injection on the same day of either anti-IL-10 (rat IgG1), rat IgG1 (control Ab), or anti-TGFβ (mouse IgG1) at 100 ug/dose, each. All treatments were given 3×/wk for 2 wks, beginning on day +20 (onset of disease remission) and until day +31 post disease induction. All mice were followed for disease scores until day 44 post disease induction. On day 44, mice were sacrificed and analyzed for total T cell and Treg cell numbers in spleen and CNS.
At onset of disease remission (day +20 post disease induction) mice were allocated into 6 treatment groups (described above) and treated with either C1ORF32 ECD-Fc (SEQ ID NO:42) or control Ig (mIgG2a), and followed on the same day by treatment with anti-IL-10, anti-TGF-β, or rat IgG1 isotype control. All treatments were given at 100 ug/dose in 100 μl of PBS; via i.p. injection, at 3×/week for 2 weeks from onset of remission.
as §1, with “moribund. Dead mice were scored with a score of 5 on the day of death only, and were not further scored on the next days.” for “moribund.”

B1: C1ORF32 ECD-Fc (SEQ ID NO:42): fusion protein of human C1ORF32 ECD fused to mouse immunoglobulin Fc (human-mouse fusion protein) (protein)
chain: LQVTVPDKKKVAMLFQPTVLRCHFSTSSHQPAVVQWKFKSYCQDRMGESLGMSSTRAQSLSKRNLEWDPYLDCLDSRRTVRVVASKQGSTVTLGDFYRGREITIVHDADLQIGKLMWGDSGLYYCIITTPDDLEGKNEDSVELLVLGRTGLLADLLPSFAVEIMGSENLYFQGSGEPRGPTIKPCPPCKCPAPNLLGGPSVFIFPPKIKDVLMISLSPIVTCVVVDVSEDDPDVQISWFVNNVEVHTAQTQTHREDYNSTLRVVSALPIQHQDWMSGKEFKCKVNNKDLPAPIERTISKPKGSVRAPQVYVLPPPEEEMTKKQVTLTCMVTDFMPEDIYVEWTNNGKTELNYKNTEPVLDSDGSYFMYSKLRVEKKNWVERNSYSCSVVHEGLHNHHTTKSFSRTPGK
modifications: Fusion protein human C1ORF32-ECD fused to mouse IgG2a Fc
For B1, the “relapsing EAE disease” value ([1]; Study I, Control Ab, 100 ug/dose 3x/wk 2 wks from Day +21) was “abrogated”, the disease severity ([1]; Study I, treatment starting after anti-CD25 (Day +19 and 21), vs anti CD25 + control Ig) was “significant decrease in disease severity” and the disease symptoms ([1]; Study II, anti-CD25 on days 20 and 22, before treatment from day 22) was “completely inhibited diseases symptoms”. The “disease course after late Treg inactivation” value ([1]; Study II, anti-CD25 on days 46 and 48, 2 weeks after completion of treatment) was “immediate relapse which was alleviated as the effect of anti-CD25 dropped off”, the disease progression ([2]; 100 ug/dose i.p. 3x/wk 2 wks from day +20, followed by rIgG1, vs control Abs only) was “pronounced inhibition of disease progression” and the “beneficial effect on disease with concomitant anti-IL-10” value ([2]; followed by anti-IL-10 100 ug/dose) was “abrogated the beneficial effect”. For the same molecule, the “beneficial effect on disease with concomitant anti-TGFβ” value ([2]; followed by anti-TGFβ 100 ug/dose) was “abrogated the beneficial effect”, the mice found dead ([2]; group C1ORF32 ECD-Fc and anti-TGFβ, day 28, n=5) was 1 and the mice found dead ([2]; group C1ORF32 ECD-Fc in combination with anti-IL-10, day 28, n=5) was 2.
